# Assay results taken from US20240076403A1.
# Tests used:
# [1] = target: human HER2-His protein (Acro, Cat. No. HE2-H5225) (human) (UniProt P04626); test: ELISA, 10 nM
# [2] = target: monkey HER2-His protein (Sino Biological, Cat. No. 90295-C08H) (monkey); test: ELISA, 0.01 nM
# [3] = target: human HER2-His protein (Acro, Cat. No. HE2-H5225) (human) (UniProt P04626); test: ELISA, 0.01 nM
# [4] = target: human HER2-His protein (Acro, Cat. No. HE2-H5225) (human) (UniProt P04626); test: ELISA, 1 nM
# [5] = target: monkey HER2-His protein (Sino Biological, Cat. No. 90295-C08H) (monkey); test: ELISA, 0.0001 nM
# [6] = target: human HER2-His protein (Acro, Cat. No. HE2-H5225) (human) (UniProt P04626); test: ELISA, 0.0001 nM
# [7] = target: human HER2 protein on cells (SK-BR-3 endogenous; CHO-K1-human HER2 recombinant) (human) (UniProt P04626); test: FACS on CHO-K1-human HER2 cells
# [8] = target: monkey HER2-His protein (Sino Biological, Cat. No. 90295-C08H) (monkey); test: ELISA, 100 nM
# [9] = target: human HER2-His protein (Acro, Cat. No. HE2-H5225) (human) (UniProt P04626); test: ELISA, 100 nM
# [10] = target: monkey HER2-His protein (Sino Biological, Cat. No. 90295-C08H) (monkey); test: ELISA, 0.00001 nM
# [11] = target: human HER2-His protein (Acro, Cat. No. HE2-H5225) (human) (UniProt P04626); test: ELISA, 0.00001 nM
# [12] = target: monkey HER2-His protein (Sino Biological, Cat. No. 90295-C08H) (monkey); test: ELISA, 10 nM
# [13] = target: human HER2-His protein (Acro, Cat. No. HE2-H5225) (human) (UniProt P04626); test: ELISA, 10 nM; remark: listed apart in the source
# [14] = target: human HER2-His protein (Acro, Cat. No. HE2-H5225) (human) (UniProt P04626); test: ELISA, 0.001 nM
# [15] = target: monkey HER2-His protein (Sino Biological, Cat. No. 90295-C08H) (monkey); test: ELISA, 0.001 nM
# [16] = target: human HER2-His protein (Acro, Cat. No. HE2-H5225) (human) (UniProt P04626); test: ELISA, 0.001 nM; remark: listed apart in the source
# [17] = target: human HER2-His protein (Acro, Cat. No. HE2-H5225) (human) (UniProt P04626); test: ELISA, 1 nM; remark: listed apart in the source
# [18] = target: monkey HER2-His protein (Sino Biological, Cat. No. 90295-C08H) (monkey); test: ELISA, 0.1 nM
# [19] = target: human HER2-His protein (Acro, Cat. No. HE2-H5225) (human) (UniProt P04626); test: ELISA, 0.1 nM
# [20] = target: human HER2 protein on cells (SK-BR-3 endogenous; CHO-K1-human HER2 recombinant) (human) (UniProt P04626); test: FACS on SK-BR-3 cells
# [21] = target: monkey HER2 on HEK293T-monkey-HER2 cells (monkey); test: FACS on HEK293T-monkey-HER2 cells
# [22] = target: monkey HER2-His protein (monkey); test: ELISA, coated monkey HER2-His
substance,measurement,setting,value
hIgG1 (IgG subtype control) (antibody),OD450,[1],0.05
same,OD450,[2],0.08
same,OD450,[3],0.06
same,OD450,[4],0.05
same,OD450,[5],0.06
same,OD450,[6],0.06
same,Max MFI,[7],71
same,OD450,[8],0.12
same,OD450,[9],0.06
same,OD450,[10],0.05
same,OD450,[11],0.05
same,OD450,[12],0.07
same,OD450,[13],0.06
same,OD450,[14],0.06
same,OD450,[15],0.05
same,OD450,[16],0.05
same,OD450,[17],0.06
same,OD450,[18],0.05
same,OD450,[19],0.05
same,Max MFI,[20],73
hIgG1 (antibody),Max MFI,[21],127 MFI
same,OD450 nm at 0.0001 nM antibody,[22],0.06 OD450 nm
same,OD450 nm at 0.001 nM antibody,[22],0.09 OD450 nm
same,OD450 nm at 0.01 nM antibody,[22],0.05 OD450 nm
same,OD450 nm at 0.1 nM antibody,[22],0.06 OD450 nm
same,OD450 nm at 1 nM antibody,[22],0.05 OD450 nm
same,OD450 nm at 10 nM antibody,[22],0.05 OD450 nm
same,OD450 nm at 100 nM antibody,[22],0.09 OD450 nm
